Measured values: PMC8189181

Biological target: Fzd1-mApple
Experiment: quasi-PIE fluorescence cross-correlation spectroscopy (FCCS); live zebrafish embryos co-expressing the EGFP- and mApple-tagged proteins; dorsal cerebellum and midbrain hindbrain boundary; room temperature; FLCS-based statistical filtering of spectral cross talk; apparent Kd

Kd: 313 nM
Substance: Wnt3C80A-EGFP (ligand)
